In the supplement of paper PMC7877785:
± gives the uncertainty stated by the source.

Assay: self-splicing fitness, log relative to wild type (ln ratio); higher = more splicing; Tetrahymena group I intron in knt gene, E. coli kanamycin selection, DiMSum; sequences stand for … in CUCUCU…GGAGGGAAAAGUUAUCAGGCAUGCACCUGGUAGCUAGUCUUUAAACCAAUAGAUUGCAUCGGUUUAAAAGGCAAGACCGUCAAAUUGCGGGAAAGGGGUCAACAGCCGUUCAGUACCAAGUCUCAGGGGAAACUUUGAGAUGGCCUUGCAAAGGGUAUGGUAAUAAGCUGACGGACAUGGUCCUAACCACGCAGCCAAGUCCUAAGUCAACAGAUCUUCUGUUGAUAUGGAUGCAGUUCACAGACUAAAUGUCGGUCGGGGAAGAUGUAUUCUUCUCAUAAGAUAUAGUCGGACCUCUCCUUAAUGGGAGCUAGCGGAUGAAGUGAUGCAACACUGGAGCCGCUGGGAACUAAUUUGUAUGCGAAAGUAUAUUGAUUAGUUUUGGAGUACUCGUGGUCG
Outline: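 DiMSum derived fitness as the error-weighted combination of fold changes across replicates, kanamycin versus no kanamycin, normalised to wild type. E. coli BL21(DE3) held the library, which randomised all eight P1ex-region intron nucleotides within the knt kanamycin-resistance gene on pET-22b(+). Six replicate transformations grew overnight at 37°C or 30°C on LB agar with or without 25 μg/mL kanamycin, also containing 100 μg/mL carbenicillin, 50 μM IPTG and 0.2% rhamnose, and pooled colonies were amplicon-sequenced on an Illumina HiSeq 2500.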

Sequence	self-splicing fitness (ln) (30 °C)	self-splicing fitness (ln) (37 °C)
CGACAGCAAUAUUACGUGCG	-4.12 ± 0.17	-2.5 ± 0.19
CGACAGCAAUAUUACGUUUG	-3.09 ± 0.15	-1.19 ± 0.11
CGAGAGCAAUAUUACGAAUU	-2.77 ± 0.29	–
CGAGAGCAAUAUUACGAUUC	-2.96 ± 0.38	-1.19 ± 0.29
CGAGAGCAAUAUUACGCACA	-2.47 ± 0.27	–
CGAGAGCAAUAUUACGCACU	-2.06 ± 0.2	-1.89 ± 0.23
CGAGAGCAAUAUUACGCCAG	–	-1.51 ± 0.4
CGAGAGCAAUAUUACGCGCA	-3.56 ± 0.48	-1.38 ± 0.26
CGAGAGCAAUAUUACGCGCG	-1.64 ± 0.25	–
CGAGAGCAAUAUUACGGUCA	-3.17 ± 0.27	-2.29 ± 0.3
CGAGAGCAAUAUUACGUAAC	–	-1.98 ± 0.34
CGAGAGCAAUAUUACGUAGG	-3.03 ± 0.15	-1.39 ± 0.15
CGAGAGCAAUAUUACGUCGU	–	-3.09 ± 0.37
CGAGAGCAAUAUUACGUGUA	-3.34 ± 0.22	-2.9 ± 0.23
CGAGAGCAAUAUUACGUUUG	-4.63 ± 0.28	-2.12 ± 0.22
CGAUAGCAAUAUUACGAAGU	-2.89 ± 0.18	-2.58 ± 0.23
CGAUAGCAAUAUUACGACCU	-1.35 ± 0.12	0.288 ± 0.14
CGAUAGCAAUAUUACGCAAU	-3.43 ± 0.27	-2.26 ± 0.25
CGAUAGCAAUAUUACGCAUA	-3.25 ± 0.28	-1.8 ± 0.24
CGAUAGCAAUAUUACGCCGA	-1.92 ± 0.21	-2.05 ± 0.28
CGAUAGCAAUAUUACGCGGA	-2.21 ± 0.22	-0.662 ± 0.15
CGAUAGCAAUAUUACGGCGU	-0.866 ± 0.085	0.51 ± 0.12
CGAUAGCAAUAUUACGGGCA	-2.06 ± 0.14	-1.53 ± 0.15
CGAUAGCAAUAUUACGGGGG	-3.7 ± 0.3	-1.49 ± 0.16
CGAUAGCAAUAUUACGGUCA	-0.212 ± 0.057	0.228 ± 0.065

Sequence	self-splicing fitness (ln) (30 °C)	self-splicing fitness (ln) (37 °C)
CGAUAGCAAUAUUACGGUUA	-0.777 ± 0.17	-0.253 ± 0.13
CGAUAGCAAUAUUACGGUUG	-1.9 ± 0.15	-0.9 ± 0.13
CGAUAGCAAUAUUACGUCCG	-1.4 ± 0.1	-0.5 ± 0.12
CGAUAGCAAUAUUACGUGUU	-4.25 ± 0.14	-2.3 ± 0.1
CGCAAGCAAUAUUACGAAUU	-2.55 ± 0.2	-3.57 ± 0.46
CGCAAGCAAUAUUACGACUA	-1.47 ± 0.22	-0.703 ± 0.2
CGCAAGCAAUAUUACGAGGA	-3.23 ± 0.24	-2.81 ± 0.29
CGCAAGCAAUAUUACGAGGC	-2.71 ± 0.2	-2.84 ± 0.29
CGCAAGCAAUAUUACGAGUA	-2.53 ± 0.14	-0.869 ± 0.096
CGCAAGCAAUAUUACGAUAA	-3.03 ± 0.19	-1.51 ± 0.23
CGCAAGCAAUAUUACGCCGC	–	-1.24 ± 0.49
CGCAAGCAAUAUUACGGACG	-1.45 ± 0.1	-0.532 ± 0.11
CGCAAGCAAUAUUACGGACU	-1.39 ± 0.08	0.158 ± 0.082
CGCAAGCAAUAUUACGGAGU	-3.16 ± 0.2	-1.68 ± 0.18
CGCAAGCAAUAUUACGGGCA	0.0951 ± 0.064	-0.199 ± 0.075
CGCAAGCAAUAUUACGGGCU	-1.68 ± 0.12	-0.144 ± 0.16
CGCAAGCAAUAUUACGGGUA	-1.68 ± 0.086	-0.81 ± 0.09
CGCAAGCAAUAUUACGGUUG	-2.25 ± 0.098	-1.18 ± 0.096
CGCAAGCAAUAUUACGUAGG	-1.24 ± 0.057	-0.509 ± 0.075
CGCAAGCAAUAUUACGUCCC	-2.84 ± 0.34	-0.615 ± 0.26
CGCCAGCAAUAUUACGAAAA	-3.4 ± 0.29	-2.7 ± 0.2
CGCCAGCAAUAUUACGACAG	-0.00427 ± 0.052	0.18 ± 0.067
CGCCAGCAAUAUUACGACUC	-3.02 ± 0.22	-2.21 ± 0.25
CGCCAGCAAUAUUACGACUG	-0.729 ± 0.13	0.335 ± 0.15
CGCCAGCAAUAUUACGAGGU	-4.39 ± 0.28	-1.89 ± 0.18
